Results: US8859492
Where no end group is shown, it is not given here. [ ]: non-standard residue; d: D form. Cha = N[C@@H](CC1CCCCC1)C(=O)O

Experiments:
[1] = molecular target: T1, S. aureus sortase A (S. aureus), Q2FV99; assay: cell-based or functional assay
T1 chain: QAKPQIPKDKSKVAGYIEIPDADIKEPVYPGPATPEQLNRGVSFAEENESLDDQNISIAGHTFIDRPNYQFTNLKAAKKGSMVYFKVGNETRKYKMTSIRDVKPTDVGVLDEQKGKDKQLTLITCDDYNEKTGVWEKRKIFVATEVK

[2] = molecular target: HCV protease (hepatitis C virus); assay: binding/inhibition curve of FIG. 1 (left); method not described
[3] = molecular target: HCV protease (hepatitis C virus); assay: cell-based or functional assay
[4] = molecular target: HCV protease (hepatitis C virus); assay: apparent binding affinity; method not described
[Cu-GGH]^1- = molecular target: T2, [Cu-GGH]^1-
T2 chain: GGH

Co-GGH-lisinopril = molecular target: T3, Co-GGH-lisinopril
T3 chain: GGH

Ni-GGH-lisinopril = molecular target: T4, Ni-GGH-lisinopril (not fully specified)
T4 chain: GGH

Cu-GGH-lisinopril = molecular target: T5, Cu-GGH-lisinopril
T5 chain: GGH

## GGHGLPET (modifications not checked) [Cu-GGHGLPET (SEQ ID NO: 104)]
[1]
  activity for catalyst concentration of 1 µM: 0.027

## GGHLPETG (modifications not checked) [Cu-GGHLPETG (SEQ ID NO: 103)]
[1]
  activity for catalyst concentration of 1 µM: 0.017

## GGHGLPETG (modifications not checked) [Cu-… (SEQ ID NO: 105)]
[1]
  activity for catalyst concentration of 1 µM: 0.012

## GGHGD[dE]LI[Cha]C-OH (also: Cu complex) [Cu-GGHGDeLI(Cha)C-CO2^-]
[2]
  Ki: 500 nM
[3]
  kinact: 0.0014 min⁻¹
  rate constant for inactivation kinact, in the presence of ascorbate/O2: < 0.083 h⁻¹
[4]
  Ka: 2e+06 M⁻¹

## GGHGD[dE]LI[Cha]T (also: Cu complex) [Cu-GGHGDeLI(Cha)T]
[3]
  kinact: 0.042 min⁻¹
[4]
  Ka: 33000 M⁻¹

## GGHLPET (modifications not checked) [Cu-GGHLPET (SEQ ID NO: 102)]
[1]
  activity for catalyst concentration of 1 µM: 0.009

B1: Recombinant human somatic ACE (sACE-1: Leu30-Leu1261, with C-terminal His tag) (protein)
chain: LDPGLQPGNFSADEAGAQLFAQSYNSSAEQVLFQSVAASWAHDTNITAENARRQEEAALLSQEFAEAWGQKAKELYEPIWQNFTDPQLRRIIGAVRTLGSANLPLAKRQQYNALLSNMSRIYSTAKVCLPNKTATCWSLDPDLTNILASSRSYAMLLFAWEGWHNAAGIPLKPLYEDFTALSNEAYKQDGFTDTGAYWRSWYNSPTFEDDLEHLYQQLEPLYLNLHAFVRRALHRRYGDRYINLRGPIPAHLLGDMWAQSWENIYDMVVPFPDKPNLDVTSTMLQQGWNATHMFRVAEEFFTSLELSPMPPEFWEGSMLEKPADGREVVCHASAWDFYNRKDFRIKQCTRVTMDQLSTVHHEMGHIQYYLQYKDLPVSLRRGANPGFHEAIGDVLALSVSTPEHLHKIGLLDRVTNDTESDINYLLKMALEKIAFLPFGYLVDQWRWGVFSGRTPPSRYNFDWWYLRTKYQGICPPVTRNETHFDAGAKFHVPNVTPYIRYFVSFVLQFQFHEALCKEAGYEGPLHQCDIYRSTKAGAKLRKVLQAGSSRPWQEVLKDMVGLDALDAQPLLKYFQPVTQWLQEQNQQNGEVLGWPEYQWHPPLPDNYPEGIDLVTDEAEASKFVEEYDRTSQVVWNEYAEANWNYNTNITTETSKILLQKNMQIANHTLKYGTQARKFDVNQLQNTTIKRIIKKVQDLERAALPAQELEEYNKILLDMETTYSVATVCHPNGSCLQLEPDLTNVMATSRKYEDLLWAWEGWRDKAGRAILQFYPKYVELINQAARLNGYVDAGDSWRSMYETPSLEQDLERLFQELQPLYLNLHAYVRRALHRHYGAQHINLEGPIPAHLLGNMWAQTWSNIYDLVVPFPSAPSMDTTEAMLKQGWTPRRMFKEADDFFTSLGLLPVPPEFWNKSMLEKPTDGREVVCHASAWDFYNGKDFRIKQCTTVNLEDLVVAHHEMGHIQYFMQYKDLPVALREGANPGFHEAIGDVLALSVSTPKHLHSLNLLSSEGGSDEHDINFLMKMALDKIAFIPFSYLVDQWRWRVFDGSITKENYNQEWWSLRLKYQGLCPPVPRTQGDFDPGAKFHIPSSVPYIRYFVSFIIQFQFHEALCQAAGHTGPLHKCDIYQSKEAGQRLATAMKLGFSRPWPEAMQLITGQPNMSASAMLSYFKPLLDWLRTENELHGEKLGWPQYNWTPNSARSEGPLPDSGRVSFLGLDLDAQQARVGQWL
[Cu-GGH]^1-
  second order rate constant for cleavage of full length sACE-1 (SDS-PAGE), ascorbate + H2O2: < 50 M⁻¹ s⁻¹
Co-GGH-lisinopril
  second order rate constant for cleavage of full length sACE-1 (SDS-PAGE), ascorbate + H2O2: < 1170 M⁻¹ s⁻¹
Ni-GGH-lisinopril
  second order rate constant for cleavage of full length sACE-1 (SDS-PAGE), ascorbate: < 1000 M⁻¹ s⁻¹
Cu-GGH-lisinopril
  second order rate constant for cleavage of full length sACE-1 (SDS-PAGE), H2O2: 250 M⁻¹ s⁻¹
  second order rate constant for cleavage of full length sACE-1 (SDS-PAGE), ascorbate: < 100 M⁻¹ s⁻¹
  second order rate constant for cleavage of full length sACE-1 (SDS-PAGE), ascorbate + H2O2: 1170 M⁻¹ s⁻¹
